Biological target: human CD22 (human, UniProt P20273 20-687)
Experiment: BLI
Procedure, shortened: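 Heavy chain-only antibodies were loaded at 5 μg/mL for 120 seconds onto anti-human IgG Fc capture biosensors on an Octet QK-384, using 1×PBS, 0.1% BSA, 0.02% Tween-20, pH 7.2 buffer. Human CD22 protein was applied in a 7-point 1:2 dilution series beginning at 250 nM, alongside a buffer-only reference well, and the data were fit to a 1:1 binding model in Octet Data Analysis v9.0. Kd, the affinity measure from this biolayer interferometry assay, was obtained as koff/kon.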

Sequence of human CD22 (P20273 20-687): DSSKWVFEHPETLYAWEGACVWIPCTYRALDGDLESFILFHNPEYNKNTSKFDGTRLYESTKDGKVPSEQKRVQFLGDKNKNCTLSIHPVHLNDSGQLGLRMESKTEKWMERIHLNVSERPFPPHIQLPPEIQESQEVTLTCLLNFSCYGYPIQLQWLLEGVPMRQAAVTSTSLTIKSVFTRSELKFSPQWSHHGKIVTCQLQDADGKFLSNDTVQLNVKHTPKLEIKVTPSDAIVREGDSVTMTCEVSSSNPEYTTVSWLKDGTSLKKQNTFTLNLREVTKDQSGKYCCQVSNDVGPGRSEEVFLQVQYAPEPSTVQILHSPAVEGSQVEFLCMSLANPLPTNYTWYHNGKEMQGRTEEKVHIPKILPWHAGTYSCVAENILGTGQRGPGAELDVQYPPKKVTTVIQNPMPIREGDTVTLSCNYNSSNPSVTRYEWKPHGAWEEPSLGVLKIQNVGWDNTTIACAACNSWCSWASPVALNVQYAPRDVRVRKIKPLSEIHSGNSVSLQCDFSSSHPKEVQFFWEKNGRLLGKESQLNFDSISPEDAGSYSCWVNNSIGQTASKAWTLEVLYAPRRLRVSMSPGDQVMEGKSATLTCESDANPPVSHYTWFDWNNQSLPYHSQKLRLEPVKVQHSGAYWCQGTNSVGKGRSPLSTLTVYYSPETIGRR

| Binder | Kd [nM] |
| --- | --- |
| anti-CD22 heavy chain-only antibody Clone ID 335220 (antibody, V domains shown) VH: QLQLQESGPGLVKPSETLSLTCTVSGGSISSSSYYWGWIRQPPGKGLEWIGSIYYSGSTYYNPSLKNRVTISVDTSKNQFSLKLSSVTAADTAVYYCTREDSSNWRSRGQGTLVTVSS | 48.2 |
| anti-CD22 heavy chain-only antibody Clone ID 335283 (antibody, V domains shown) VH: QLQLQESGPGLVKPSETLSLTCTVSGGSISSSSYYWGWIRQPPGKGLEWIGSIYYSGATYYNPSLKNRVTISVDTSKNQFSLKLSSVTAADTAVYYCTREDSSSWRSRGQGTLVTVSS | 36.9 |
| anti-CD22 heavy chain-only antibody Clone ID 335166 (antibody, V domains shown) VH: QLQLQESGPGLVKPSETLSLTCTVSGGSISSSSYYWGWIRQPPGKGLEWIGSIYYSGSTYYNPSLKNRVTISVDTSRNQFSLNLSSVTAADTAVYYCTRDDSSNWRSRGQGTLVTVSS | 33 |
| anti-CD22 heavy chain-only antibody Clone ID 335297 (antibody, V domains shown) VH: QLQLQESGPGLVKPSETLSLTCTVSGGSISSSSYYWGWIRQPPGKGLEWIGHIYYSGATYYNPSLKNRVTISVDTSRNQFSLNLSSVTAADTAVYYCTREDSSSWRSRGQGTLVTVSS | 28.8 |
| anti-CD22 heavy chain-only antibody Clone ID 335266 (antibody, V domains shown) VH: QLQLQESGPGLVRPSETLSLTCTVSGGSISSSSYYWGWIRQPPGKGLEWIGSIYYSGSTYYNPSLKSRVTISVDTSKNQFSLKLSSVTAADTAVYYCTREDSSSWRSRGQGTLVTVSS | 38.5 |
| anti-CD22 heavy chain-only antibody Clone ID 335333 (antibody, V domains shown) VH: QLQLQESGPGLVKPSETLSLTCTVSGGSISSSSYYWGWIRQPPGKGLEWIGSIYYSGSTYYNPSLKSRVTISVDTSKNQFSLKLSSVTAADTAVYYCAREDSSSWRSRGQGTLVTVSS | 22.4 |
| anti-CD22 heavy chain-only antibody Clone ID 335230 (antibody, V domains shown) VH: QLQLQESDPGLVKPSETLSLTCTVSGGSISSSSHYWGWIRQPPGKGLEWIGHIYYSGATYYNPSLKNRVTISVDTSRNQFSLNLSSVTAADTAVYYCTREDSSNWRSRGQGTLVTVSS | 75.2 |
| anti-CD22 heavy chain-only antibody Clone ID 335285 (antibody, V domains shown) VH: QLQLQESGPGLVKPSETLSLTCTVSGGSISSSSYYWGWIRQPPGKGLEWIGSIYYSGVTYYNPSLKNRVTISVDTSKNQFSLKLSSVTAADTAVYYCTREDSSSWRSRGQGTLVTVSS | 114 |
| anti-CD22 heavy chain-only antibody Clone ID 335188 (antibody, V domains shown) VH: QLQLQESGPGLVKPSETLSLTCTVSGGSISSSSYYWGWIRQPPGKGLEWIGHIYYSGVTYYNPSLKNRVTISVDTSKNQFSLKLSSVTAADTAVYYCTRDDSSNWRSRGQGTLVTVSS | 53 |
| anti-CD22 heavy chain-only antibody Clone ID 335236 (antibody, V domains shown) VH: QLQLQESGPGLVKPSETLSLTCTVSGGSISSSSYYWGWIRQPPGKGLEWIGSIYYSGSTYYNPSLKSRVTISVDTSKNQFSLKLSSVTAADTAVYYCTREDSSNWRSRGQGTLVTVSS | 27.3 |
| anti-CD22 heavy chain-only antibody Clone ID 335195 (antibody, V domains shown) VH: QLQLQESGPGLVKPSETLSLTCTVSGGSISSSSYYWGWIRQPPGKGLEWIGSIYYSGATYYNPSLKNRVTISVDTSRNQFSLNLSSVTAADTAMYYCTREDSSNWRSRGQGTLVTVSS | 150 |
| anti-CD22 heavy chain-only antibody Clone ID 335189 (antibody, V domains shown) VH: QLQLQESGPGLVKPSETLSLTCTVSGGSISSSSYYWGWIRQPPGKGLEWIGSVYYTGATYYNPSLKNRVTISVDTSKNQFSLKLSSVTAADTAVYYCTRDDSSNWRSRGQGTLVTVSS | 36 |
| anti-CD22 heavy chain-only antibody Clone ID 335233 (antibody, V domains shown) VH: QLQLQESGPGLVKPSETLSLTCTVSGDSISSGDYYWGWIRQPPGKGLEWIGSIYYSGSTYYNPSLKSRVTISVDTSKNQFSLKLSSVTAADTAVYYCTREDSSNWRSRGQGTLVTVSS | 19 |
| anti-CD22 heavy chain-only antibody Clone ID 335210 (antibody, V domains shown) VH: QLQLQESGPGLVKPSETLSLTCTVSGGSISSGDYYWGWIRQPPGKGLEWIGHIYYSGATYYNPSLKNRVTISVDTSRNQFSLKLSSVTAADTAVYYCTREDSSNWRSRGQGTLVTVSS | 62.5 |
| anti-CD22 heavy chain-only antibody Clone ID 335219 (antibody, V domains shown) VH: QLQLQESGPGLVKPSETLSLTCTVSGGSISSSSYYWGWIRQPPGKGLEWIGSIYYSGVTYYNPSLKNRVTISVDTSKNQFSLKLSSVTAADTAVYYCTREDSSNWRSRGQGTLVTVSS | 90.6 |
| anti-CD22 heavy chain-only antibody Clone ID 335224 (antibody, V domains shown) VH: QLQLQESGPGLVKPSETLSLTCTVSGDSISSGDYYWGWIRQPPGKGLEWIGSIYYTGSTYYNPSLKSRVTISVDTSKNQFSLKLSSVTAADTAVYYCTREDSSNWRSRGQGTLVTVSS | 23.4 |
| anti-CD22 heavy chain-only antibody Clone ID 335273 (antibody, V domains shown) VH: QLQLQESGPGLVKPSETLSLTCTVSGGSISSSSYYWGWIRQPPGKGLEWIGSIYYSGSTYYNPSLKSRVTISVDTSKNQFSLKLSSVTAADTAVYYCTREDSSSWRSRGQGTLVTVSS | 42.2 |
| anti-CD22 heavy chain-only antibody Clone ID 335186 (antibody, V domains shown) VH: QLQLQESGPGLVKPSETLSLTCTVSGGSISSSSYYWGWIRQPPGKGLEWIGSIYYSGSTYYNPSLKSRVTISVDTSKNQFSLKLSSVTAADTAVYYCTRDDSSNWRSRGQGTLVTVSS | 17.6 |
| anti-CD22 heavy chain-only antibody Clone ID 335226 (antibody, V domains shown) VH: QLQLQESGPGLVKPSETLSLTCTVSGDSISSSSYYWGWIRQPPGKGLEWIGSIYYSGSTYYNPSLKSRVTISVDTSKNQFSLKLSSVTAADTAVYYCTREDSSNWRSRGQGTLVTVSS | 25.5 |
| anti-CD22 heavy chain-only antibody Clone ID 335173 (antibody, V domains shown) VH: QLQLQESGPGLVKPSETLSLTCTVSGGSITSSSYYWGWIRQPPGKGLEWIGSIYYSGSTYYNPSLKSRVTISVDTSKNQFSLKLSSVTAADTAVYYCTRDDSSNWRSRGQGTLVTVSS | 30.5 |
| anti-CD22 heavy chain-only antibody Clone ID 335242 (antibody, V domains shown) VH: QLQLQESGPGLVKPSETLSLTCTVSGGSISSSSYYWGWIRQPPGKGLEWIGHIYYSGATYYNPSLKNRVTISVDTSRNQFSLNLSSVTAADTAVYYCTREDSSNWRSRGQGTLVTVSS | 79.7 |
| anti-CD22 heavy chain-only antibody Clone ID 335208 (antibody, V domains shown) VH: QLQLQESGPGLVKPSETLSLTCTVSGGSISSSSYYWGWIRQPPGKGLEWIGSIYYSGATYYNPSLKNRVTISVDTSRNQFSLNLSSVTAADTAVYYCTREDSSNWRSRGQGTLVTVSS | 58.4 |
| anti-CD22 heavy chain-only antibody Clone ID 335295 (antibody, V domains shown) VH: QLQLQESGPGLVKPSETLSLTCTVSGGSISSSSYYWGWIRQPPGKGLEWIGSIYYSGATYYNPSLKNRVTISVDTSRNQFSLNLSSVTAADTAVYYCTREDSSSWRSRGQGTLVTVSS | 31.6 |
| anti-CD22 heavy chain-only antibody Clone ID 335179 (antibody, V domains shown) VH: QLQLQESGPGLVKPSETLSLTCTVSGGSISSSSYYWGWFRHPPGKGLDWIGSIHYSGSTYYNPSLKSRVTISVDTSRNQFSLNLSSVTAADTAVYYCTRDDSSNWRSRGQGTLVTVSS | 148 |
| anti-CD22 heavy chain-only antibody Clone ID 335311 (antibody, V domains shown) VH: QLQLQESGPGLVKPSETLSLTCAVYGGSFSGYYWGWIRQPPGKGLEWIGHIYYSGATYYNPSLKNRVTISVDTSRNQFSLNLSSVTAADTAVYYCTREDSSSWRSRGQGTLVTVSS | 2.66 |

From patent US20210047402A1 (published 2021)
